Data reported in the nanobody polyreactivity screen of Harvey et al. (2022).

Test: yeast display, Sf9 membrane polyspecificity reagent, FACS + sequencing; frameworks hold sequencing errors
Summary of the method: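 Nanobodies from a synthetic yeast display library (Saccharomyces cerevisiae BJ5465), induced 36–48 hours with galactose, were stained 1 hour at 4 °C with 10% biotinylated, detergent-solubilized Sf9 membrane reagent, enriched on streptavidin microbeads, then FACS-sorted. Anti-HA (expression) and streptavidin (reagent binding) fluorescence set low and high (top ~1%) gates. Polyreactivity labels come from the gate of origin. Genes were colony-PCR amplified, MiSeq 2 × 250 sequenced and filtered by CDR length.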

| Sequence | polyreactivity (PSR sort gate) |
| --- | --- |
| QVQLVESGGGLVQAGGSLRLSCAASGSTFLNYAMGWYRQAPGKERELVAAISFSGGRTYYADSVKGRFTISRDNAKNTVYLQMNSLKPEDTAVYYCAAGGWRGHYYWGQGTQVTVSS | high polyreactivity |
| QVQLVESGGGLVQAGGSLRLSCAASGSTFLNYAMGWYRQAPWKERELVAAISGRGGRTYYADSVKGRFTISRDNATNTVYLQMNSLKPEDTAVYYCANKRRGGYLYRQELDYWGQGTQVTVSS | high polyreactivity |
| QVQLVESGGGLVQAGGSLRLSCAASGSTFLPNAMGWYRQAPGTERELVATITFDGGSTYYADSVKGRFTISRDNAKNTVYLQMNSLKPEDTAVYYCNTVELYWRGYDYWGQGTQVTVSS | high polyreactivity |
| QVQLVESGGGLVQAGGSLRLSCAASGSTFLQNAMGWYRQAPGKEREFVAAISYTGANTYYADSVKGRFTISRDNAKNTVYLQMNSLKPEDTAVYYCNRYAKQYLSGTVPVNLDYWGQGTQVTVSS | high polyreactivity |
| QVQLVESGGGLVQAGGSLRLSCAASGSTFLRYAMGWYRQAPGKERELVAAINWSGGGTSYADSVKWRFTISRDNAKNTVYLQMNSLKPEDTEGYSCAAYFRYSYYWSEYWGQGTQVTVSS | high polyreactivity |
| QVQLVESGGGLVQAGGSLRLSCAASGSTFLRYAMGWYRQAPGKERELVAAISLSGGRTHYADSVKGRFTISRDNAKNTVYLQMNSLKPEDTAVYYCAARNTGPVQYYYWGQGTQVTVSS | low polyreactivity |
| QVQLVESGGGLVQAGGSLRLSCAASGSTFLRYVMGWYRQAPGKERELVAAISRRGGSTYYADSVKGRFTISRDNAKNTVYLQMNSLNPEDTAGYYCARTVGYRTLLESDSCGQGTQVTVSS | high polyreactivity |
| QVQLVESGGGLVQAGGSLRLSCAASGSTFLSNAMGWYRPAPGKERELVAAITTSGTSTFDADSVKGRFTISRDNAKTTVYLQMNSLKPEDTAVYCAKDYLPYLHFVAPSTGDYDYWGQGTQVTVSS | low polyreactivity |
| QVQLVESGGGLVQAGGSLRLSCAASGSTFLSYVMGWYRQAPGKERELVAAINRDGGRTYYADSVKGRFTISRDNAKNTVYLQMNSLKPEDTAVYYCATTSQATSGPRRKLYYYWGQGTQVTVSS | high polyreactivity |
| QVQLVESGGGLVQAGGSLRLSCAASGSTFLVNAMGLYRQAPGKEREFVAAITGNAGSTYYADSVKGRFTISRDNAKITVYLQMNSLIPEDTAVYYCARTRRTPRGYLDFSLREYDYWGQGTQVTVSS | low polyreactivity |
| QVQLVESGGGLVQAGGSLRLSCAASGSTFLVNAMGWYRQAPGKERELVAAITQSGGSTFYADSVKGRFTISRDNEKNTVYLQMNSLKPEDTAVYYWGQGTQVSVSS | low polyreactivity |
| QVQLVESGGGLVQAGGSLRLSCAASGSTFLVNGMGWYRQAPGKERELVAAISSGDGSTYYADSVKGRFTISRDNAKNTVYLQMNSLKPEDTAVYYCAVDCWWTGYDYWGQGTQVTVSS | low polyreactivity |
| QVQLVESGGGLVQAGGSLRLSCAASGSTFLVYAMGWYRQAPGKERELVAVIDNGGDTYYADSVKGRFTISRDNAKNTVYLQMNSLIPEDTEVYYCAADLSYLGYWEYDYWGQGTQVTVSS | low polyreactivity |
| QVQLVESGGGLVQAGGSLRLSCAASGSTFLVYAMGWYRQAPGKERELVAVIRWRDGSTYYADSVKGRFTISRDNAKNTVYLQMNSLKPEDTAVYYCAAVYWGEEYEYWGQGTQVTVSS | low polyreactivity |
| QVQLVESGGGLVQAGGSLRLSCAASGSTFLVYDRGWYRQAPGKERELVAAITWSGGSTYYADSVKGRFTISRDNAKNTVYLQINSLTPEYTAVYYCAAEIHRTYSWEYPYEMYWGQGTQVTVSS | high polyreactivity |
| QVQLVESGGGLVQAGGSLRLSCAASGSTFLYYAMGWYRQAPGKERELVAAIDSGGSTYYADSVKGRFTISRDNAKNTVYLQMNSLKPEDTAVYYCNADFADHWPPNGPGALDYWGQGTQVTVSS | low polyreactivity |
| QVQLVESGGGLVQAGGSLRLSCAASGSTFMDYAMGWYRQAPGKERELVAAISSGGSTNYADSVKGRFTISRDNAKNTVYLQMNSLKPEDTAVYYCNADYYWSRTQEFDYWGQGTQVTVSS | high polyreactivity |
| QVQLVESGGGLVQAGGSLRLSCAASGSTFNANTMGWYRQAPGKEREFVAAISWTGASTYYADSVKGRFTISRDNAKNTVYLHMNSLKPEDTAVDYCNADYTVADGPYRDGYDYWGQGTQVTVSS | low polyreactivity |
| QVQLVESGGGLVQAGGSLRLSCAASGSTFNANTMGWYRQAPGKEREFVAAISWTGASTYYADSVKGRFTISRDNAKNTVYLQMNSLKPEDTAVYYCNADYTVADGPYRDGYDYWGQGTQVTVSS | low polyreactivity |
| QVQLVESGGGLVQAGGSLRLSCAASGSTFNAYAMGWYRQAPGKERELVAVISSSGGRTYYADSVKGSFTISRDNAKNTVYLQMNSLKPEDTAVYYCNADVKYRYNHWGQGTQVTLSS | high polyreactivity |
| QVQLVESGGGLVQAGGSLRLSCAASGSTFNAYVMGWYRQAPGKERELVAAITRGGSTNYADSVKGRFTISRDNAKNTVYLQMNSLKPEDTAVYDCAARGPWVIPYDYWGQGTQVTVSS | low polyreactivity |
| QVQLVESGGGLVQAGGSLRLSCAASGSTFNHNAMGWYRQAPGKERELVAAITSGTSTYYADSVKGRFTISRDNAKNTVYLQMNSLKPEDTAVYYCAADSPWGGGYFVLYNYWGQGTQVTVSS | low polyreactivity |

| Sequence | polyreactivity (PSR sort gate) |
| --- | --- |
| QVQLVESGGGLVQAGGSLRLSCAASGSTFNIYAMGWYRQAPGKERELVAAITWSTGRTYYADSVKGRFTISRDTAKNTVYLQMNSLKPEDTAVYYCAARSKIRAFGYWGLGTQVTVSS | high polyreactivity |
| QVQLVESGGGLVQAGGSLRLSCAASGSTFNIYTMGWYRQAPGKERELVARITFSGGSTYYADSVKGRFTISRDNAKNTVYLQMNSLKPEDTAVYYCAVRVYRVDHFGYDYWGQGTQVTVSS | high polyreactivity |
| QVQLVESGGGLVQAGGSLRLSCAASGSTFNKYTMGWYRQAPGKERELVAAITSGDSTYYADSVKGRFTISRDNAKNTVYLQMNSLKPEDTAVYYCAADVRYFDPFDWWGSLVLAYDYWGQGTQVTVSS | low polyreactivity |
| QVQLVESGGGLVQAGGSLRLSCAASGSTFNQNAMGWYRQAPGKERELVARITSGGSTYYADSVKGRFTISRDNAKNTVYLQMNSLKPEDTAVYYCAARANPYVLKYYYWGQGTQVTVSS | high polyreactivity |
| QVQLVESGGGLVQAGGSLRLSCAASGSTFNRNTMGWYRQAPGKERELVAAITSSGGRTYYADSVKGRFTISRDNAKNTVFLQVNSLKPEDTAVYYCATVNRVLIAGRFDSWGQGTQVTVSS | high polyreactivity |
| QVQLVESGGGLVQAGGSLRLSCAASGSTFNRYAMGWYIQAPGKERELVAAITRSGTSTYYADSVKGRFTISRDNAKNTVYLQMNSLKPEDTAVYYCAAVRYAVHFSYDYWGQGTQVTVSS | high polyreactivity |
| QVQLVESGGGLVQAGGSLRLSCAASGSTFNRYAMGWYRQAPGKERELVADINSGGRTNYADSVKGRFTISRDNAKNTVYLQMNSLKPEDTAVYFCARRFQYWLSGGQYDYWGQGTQVTVSS | high polyreactivity |
| QVQLVESGGGLVQAGGSLRLSCAASGSTFNSNAMGWYRQAPGKERELVAAISYSGGRTYYADSVKGRFTISRDNAKNTVYLQMNSLKPEDTAVYYCAKSPNHYIHFDYWGQGTQVTVSS | low polyreactivity |
| QVQLVESGGGLVQAGGSLRLSCAASGSTFNSYAMGWNRQAPGKERELVDRILWSGSTYYADSVKGRFTISRDNAKNTVYLQMNSLKPEDTAVYYFAAKRGYHIGDYWGQCTQVTVSS | high polyreactivity |
| QVQLVESGGGLVQAGGSLRLSCAASGSTFNSYAMGWYRQAPWKERELVAAISSTGGNTYYADSVKGRFTISRDNAKNTVYLQMNSLKPEDTAVYYCNARRYGKVVRSRYNYWGQGTQVTVSS | high polyreactivity |
| QVQLVESGGGLVQAGGSLRLSCAASGSTFNTYAMGWYRQAPGKERELVAAITFSVGSTYYADSVKGRFTISRDNAKNTVYLQMNSLKPEDTAVYYCARRGAYTGRYDYWGQGTQVTVSS | high polyreactivity |
| QVQLVESGGGLVQAGGSLRLSCAASGSTFNYYALGGYRQAPGKERELVAAISTSDGSTYYADSVKGRFTISRDNAKITVYVQMNSLKPEDTAVYYCAADSYERFPSYYYWGQGTQVTVSS | low polyreactivity |
| QVQLVESGGGLVQAGGSLRLSCAASGSTFNYYAMGWNRQAPVKERELVATISWSGDSTYADSVKGRFTISRDNAKNTVYLQMHSLKPEDTAVYYCATSGDWWCFRYDYWGQGTQVTVSS | low polyreactivity |
| QVQLVESGGGLVQAGGSLRLSCAASGSTFNYYAMGWYRPAPGKERELVAAICSRSSRTFYADSVKGRFSISRDNEKNTVYLQMNSLKPEDTAVYYCAVKKRAPDGDYWGQGSQVTVSS | high polyreactivity |
| QVQLVESGGGLVQAGGSLRLSCAASGSTFNYYAMGWYRQAPGKERELVAAISSSGGTTYYADSVKGRFTISRDNAKNTVYLQMKSLKPEDTAVYYCATDTPPYWGGSHFDYWGQGTQVTVSS | low polyreactivity |
| QVQLVESGGGLVQAGGSLRLSCAASGSTFNYYAMGWYRQAPGKERELVARISWSGSTYADSVKGRFTISRDNAKNTVYLQMNSLKPEDTAVYYCAAPYVQKSHRGMDYWGQGTQVTVSS | low polyreactivity |
| QVQLVESGGGLVQAGGSLRLSCAASGSTFPANAMGWYRPAPGKERELVATSSWSGGRTYYADSVKGRFTISRDNAKNTVDLQMNSLKPEDTAVYYCAKGYYWLSTYGDSRYGYWGQGTQVTVSS | high polyreactivity |
| QVQLVESGGGLVQAGGSLRLSCAASGSTFPAYAMGWYRQAPGKERELVATITYTGGSTYYADSVKGRFTISRDNAKNTVYLQMNSLKPEDTAVYYCAADRLVQEDEFDYWGQGTQVTVSS | low polyreactivity |
| QVQLVESGGGLVQAGGSLRLSCAASGSTFPDNAMGWYRQAPGKERELVAAISFSSGSTYYADSVKGRFTISRDNAKNTVYLQMNILKPEDTAVYYCAVANPSQYEWIAYYYWGQGTQVTVSS | low polyreactivity |
| QVQLVESGGGLVQAGGSLRLSCAASGSTFPDYVMGRYRQAPGKERELVAAFSSIGGSTYYADSVKGRFTISRDNAKNTVYLQMNCLKPEDTAVYYCAAENSYFYPFDYWGQGTQVTVSS | low polyreactivity |
| QVQLVESGGGLVQAGGSLRLSCAASGSTFPFYAMGWYRPAPGKERELVAAITSGGSTYADSVKGRFTISRDNAKNSVYLQMNSLKPEDTAVYYCAASWPRWWRFGYWGQGTQVTVSS | low polyreactivity |
